Assay: yeast display, Sf9 membrane polyspecificity reagent, FACS + sequencing; frameworks hold sequencing errors
How it was run: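 Galactose induction of a Saccharomyces cerevisiae BJ5465 synthetic nanobody display library ran 36–48 hours. The cells were then stained for 1 hour at 4 °C with 10% biotinylated, detergent-solubilized Sf9 membrane reagent, pulled down on streptavidin microbeads and FACS-sorted into low and high (top ~1%) gates on expression and reagent-binding fluorescence. Labels for polyreactivity follow the gate of origin.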

| Sequence | polyreactivity (PSR sort gate) |
| --- | --- |
| QVQLVESGGGLVQAGGSLRLTCAASGSTFLYYAMGWSREGPGNERELVATITHGGATNYADSVKGRFTISRDNAKNTVYLELNSLIPDDTAVYYCATDSYHYSYGYASLPEYDYWGHGTQVTVSS | low polyreactivity |
| QVQLVESGGGLVQAGGSLRLTCAASGSTFNRYAMGWYRQAPGKERELVAAITSTGGTNYADSVKGRFTISLDNAKNTVYLQMNSLKPEDTAFYYCAKRWLRWRSNYWGQGTQVTVSS | high polyreactivity |
| QVQLVESGGGLVQAGGSLRLTCAASGSTFQHYAMGWYRQAPGKEMELVAAITNTGGSTYYADSVKGRFTISRDNAKNTVYLQMNSLKPEDNAVYYCATVARRYGYPGYYWGQGTQVTVSS | low polyreactivity |
| QVQLVESGGGLVQAGGSLRLTCAASGSTFRGNTMGWSRQAPGKERELVAAISWDGGTTYYADSVKGRFTISRDNAKNTVYLQMNCLKPEDTAVYYCAADWTGQEYEYWGQGTQVTVSS | low polyreactivity |
| QVQLVESGGGLVQAGGSLRLTCAASGSTFTAYAMGWYRQAPGKERELVADISDSGGSTYYADSVKGRFTISRDNAKNTVYLQMNSLIPEDTAVYYCAVDVRAYVVSKFDSWGQGTQVTVSS | low polyreactivity |
| QVQLVESGGGLVQAGGSLRLTCAASGSTFWFYAMGWYRQAPGKERELVATITIGGRTYADSVKGRYTISRDNAKNTVYLQMNSLKPEDTAVYYCAARRVRLEYVYGRYDYWGQGTQVTVSS | low polyreactivity |
| QVQLVESGGGLVQAGGSLRLTCAASGSTFWYYAMGWYRQAPGKERELVASITYSGGSTYYADSVKGRFTISRDNAKNTVYLQMNSLKPEDTAVYYCAKDGVSPSLRAYAAGYDYWGQGTQVTVSS | low polyreactivity |
| QVQLVESGGGLVQAGGSLRLTCAASGSTFYSNAMGWYRQATGKERELVASIRFSGVITTYADSVKGRFTISRDNAKNTVYLQMNSLKPEDTAVYYCAAGYLSTTAYDYWGQGTQVTVSS | low polyreactivity |
| QVQLVESGGGLVQAGGSLRLTCAASGTIFYYNAMRWYRQAPGKERELVAAISWSGSRTYYADSVKGRFTISRDNAKITVYLQMNSLKPEDTAVYYCAAVVRFPFTYDYWGQGTQVTVSS | high polyreactivity |
| QVQLVESGGGLVQAGGSLRLTCAASGVTFRYYAMVWYRQAPGKERELVAAITGSGTRTYYADSVKGRFTISRDNAKNTLYLQMNSLKPEDTAVYYCNAPRQPRWFDYWGQGTQVTVSS | high polyreactivity |
| QVQLVESGGGLVQAGGSLRLTCAASRLTFDDNAMGWYRQAPGKERELVAAISYNGGSTYYADSVKGRFTISRDNAKNTVYLQMNSLKPEDTAVYYCAADISVGRYGDMDYWGQGTQVTVSS | low polyreactivity |
| QVQLVESGGGLVQAGGSLRLTCAASVSIFPHYTMGWYRPAPGKERELVDAISNYGSSTYYADSVKGRFTISRDNAKNTVYLQMNSLKPEDSEVYYCNADDYGYSPGVNYWGQGTQVTVSS | low polyreactivity |
| QVQLVESGGGLVQAGGSLRLTCAAYGRIFRGYAMGWYRQAPGKERDLVAAISGSGGSTYNADSVKGRFTISRDNAKNTVYLQMNSLKPEDTAVYYCNAGWYFYGETTDDYWGQGTQVTVSS | low polyreactivity |
| QVQLVESGGGLVQAGGSLRLTCAAYGRIYINTMGWYRQPPGKERELVAAITWSGGNTYYADSVKGRFTISRDNAKNTVYLQMNSLKPEDTAVYYWAVGGYLRSVSYIRLGNYYWGQGTQVTVSS | high polyreactivity |
| QVQLVESGGGLVQAGGSLRLTFAASGINLYDNVMGWYRTAPGKERELVAAISSSGTTKYYADSVKGRFTISRDYAKNTFYLQMNSLNPEDTAVYYCAADGITWYAIAYYYWGQGTQVTVSS | high polyreactivity |
| QVQLVESGGGLVQAGGSLRLTSAASGFTFPYTDMGWYRPAPGKERELVADISSGGSTYYADSVKGRFTISRDNAKINVYLQMISLKPEDTAVYYCAAREAYSIRIYQGFGYWGQGTQVTVSS | low polyreactivity |
